We go through eleven molecules from US10370642B2, “Hematopoietic progenitor cell populations having affinity for E-selectin / L-selectin” (priority 2000, dated 2019).

Holding throughout (format): cell-based
Test [1] addresses T1, E-selectin (Homo sapiens, UniProt P16581).
T1 construct: stably transfected with full-length cDNA encoding human E-selectin; expressed in transfected cells
T1 sequence (P16581 22-610): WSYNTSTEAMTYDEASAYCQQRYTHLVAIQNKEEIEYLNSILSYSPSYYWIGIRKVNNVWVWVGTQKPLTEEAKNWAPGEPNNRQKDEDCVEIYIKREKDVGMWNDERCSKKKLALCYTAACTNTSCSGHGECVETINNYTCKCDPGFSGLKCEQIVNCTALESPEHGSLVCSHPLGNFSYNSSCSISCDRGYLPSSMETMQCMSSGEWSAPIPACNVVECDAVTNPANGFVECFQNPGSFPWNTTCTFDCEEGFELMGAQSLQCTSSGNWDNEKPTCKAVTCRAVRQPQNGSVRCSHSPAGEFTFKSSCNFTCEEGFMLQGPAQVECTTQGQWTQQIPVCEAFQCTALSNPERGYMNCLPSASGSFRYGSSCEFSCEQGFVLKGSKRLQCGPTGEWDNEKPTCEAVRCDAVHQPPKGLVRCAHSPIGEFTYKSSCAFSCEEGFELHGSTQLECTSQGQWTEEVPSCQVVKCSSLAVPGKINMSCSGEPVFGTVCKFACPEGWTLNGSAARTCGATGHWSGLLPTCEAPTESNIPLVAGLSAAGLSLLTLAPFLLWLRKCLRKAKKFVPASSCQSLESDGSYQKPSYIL
Nature of the test: CHO-E cell rolling on immobilized immunoprecipitates, parallel-plate flow chamber. The settings on record: immunoprecipitates on plastic; 2.8 dynes/cm^2. The method, then: CD44 was immunoprecipitated from untreated cell lysates or from cell lysates treated with N-glycosidase-F (0.8 U/ml) Vibrio cholerae neuraminidase (0.1 U/ml) or a-L-fucosidase (80 mU/ml), and PSGL-1 was immunoprecipitated from untreated cell lysates as previously described (Sackstein and Dimitroff, 2000; Dimitroff et al., 2000).
CD44 or PSGL-1 immunoprecipitates were spotted onto plastic petri dishes, fixed in 3% glutaraldehyde and incubated in 0.2M lysine to block unreactive aldehyde groups, and then non-specific binding was prevented by incubating in 100% FBS for 1 hr at RT. Fixed spots were also treated with Vibrio cholerae neuraminidase (0.1 U/ml assay medium), which was overlaid onto the spots and incubated at 37° C. for 1 hr. […] The flow rate was then increased to achieve a shear stress of 2.8 dynes/cm^2. The frequency of cells rolling per 100× magnification field was determined, and data were expressed as the mean±standard deviation of 8 fields visualized from a minimum of 3 experiments.

The target in a further test is T2, L-selectin (Rattus norvegicus, UniProt P30836).
T2 construct: L-selectin naturally expressed on leukocytes; endogenous in cells; host or cells: lymphocytes (rat thoracic duct lymphocytes; human PBMC also prepared)
T2 sequence (P30836 39-372): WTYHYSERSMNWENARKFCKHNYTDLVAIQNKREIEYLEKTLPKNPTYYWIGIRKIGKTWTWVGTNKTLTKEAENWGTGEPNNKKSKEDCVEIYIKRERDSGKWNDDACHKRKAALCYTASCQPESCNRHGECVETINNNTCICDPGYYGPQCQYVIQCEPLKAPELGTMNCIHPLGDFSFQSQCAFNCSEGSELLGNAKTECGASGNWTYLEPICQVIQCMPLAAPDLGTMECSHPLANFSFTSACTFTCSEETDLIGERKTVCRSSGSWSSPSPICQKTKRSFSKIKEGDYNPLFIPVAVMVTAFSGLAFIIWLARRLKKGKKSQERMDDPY
Nature of the test: Stamper-Woodruff assay, lymphocyte adherence to immunoprecipitated CD44 and PSGL-1. As to conditions: 80 rpm; for Mean Number of Bound Lymphocytes: 0.75 μg/spot (PSGL-1 1 μg/spot), 4° C., 100× mag. Here is the method: These protein spots were then fixed in 3% glutaraldehyde, unreactive aldehyde groups were blocked in 0.2M lysine and slides were kept in RPMI-1640 without NaBicarbonate/2% FBS until ready for testing. Lymphocytes (10^7/ml RPMI-1640 without NaBicarbonate/5% FBS) were overlayed onto these fixed immunoprecipitates and incubated on an orbital shaker at 80 rpm for 30 min. at 4° C. The number of adherent lymphocytes was quantified by light microscopy using an ocular grid under 100× magnification (a minimum of 5 fields/slide, 2 slides/experiment, and 3 separate experiments). Data were presented as the mean number of bound lymphocytes±standard deviation. KG1a CD34 and L-selectin control immunoprecipitates were also tested in this manner. To verify the dependence for sialic acid, glutaraldehyde-fixed spots were treated with Vibrio cholerae neuraminidase (0.1 U/ml RPMI-1640 without NaBicarbonate/2% FBS for lhr at 37° C.).
Immunoaffinity purified material (0.75-3 μg/spot) was spotted onto glass slides for analyses in the Stamper-Woodruff assay (See below for assay description). For autoradiographic analysis of immunoprecipitated [^35S]-methionine-radiolabeled CD44 and PSGL-1, immunoprecipitates were spotted onto glass slides, allowed to dry and exposed Kodak BioMax-MR film for 12 h at −80° C. Densitometric analysis (optical density) of the autoradiograms was performed with a Hewlett-Packard Scanj et 5200C scanner and NIH Image processing and analysis program.

Test [2] deals with T1, E-selectin. The experiment in a line: Blot rolling assay with CHO-E cells. The settings on record: immunoprecipitated CD44 on Western blot; 3.8 dynes/cm^2. Here is the method:
The blot rolling assay was performed as previously described (Dimitroff et al., 2000). Briefly, CHO-E, CHO—P or CHO-Mock transfectants were isolated as described above, washed twice in HBSS and suspended at 10^7/ml in HBSS/10 mM HEPES/2mMCaCl2 (H/H/Ca++)/10% glycerol. Western blots of HPC membrane preparations stained with HECA-452 were rendered transparent by incubating them in H/H/Ca++/10% glycerol. The blots were then placed in the parallel-plate flow chamber, and CHO transfectants (2×10^6/ml) were perfused into the chamber. After allowing the cells to come in contact with the blotting membrane, the flow rate was adjusted to exert a shear stress of 3.8 dynes/cm^2. The viscosity of 10% glycerol adhesion assay medium was considered in the calculation of shear stress values. The number of cells rolling on and between each immunostained banding region was quantified under 100× magnification within each field of view on the video monitor using molecular weight markers (Kaleidoscope Molecular Weight Markers, Bio-Rad Lab.; See Blue® from Novex, Inc.) as guides to help align and visualize the apparent molecular weights of the proteins of interest. A minimum of 3 experiments was performed and results were expressed as the mean±SD of cell rolling/field at 100× magnification.
(In general: In western blotting, separated proteins are transferred to a membrane and probed.)

Regarding “RPMI 8402 CD44: CD44 isolated from RPMI 8402 cells”, the “E-selectin ligand activity (CHO-E cell rolling)” value with E-selectin [1] is “did not support any CHO-E cell rolling”.

As to “AML (M1) CD44: CD44 (HCELL) immunoprecipitated from blasts of an AML without maturation (M1)”, the “Mean Number of Bound Lymphocytes” value with L-selectin came out at 425.3. The “fold higher mean number of lymphocytes bound to CD44 than to PSGL-1” value in the test with L-selectin (p<0.001) was 3 fold.

Consider “HL60 CD44: CD44 immunoprecipitated from HL60 cells”, for which, in the test with L-selectin, the “Mean Number of Bound Lymphocytes” value was 6.5. Also, the “E-selectin ligand activity (CHO-E cell rolling)” value with E-selectin [1] is reported as “did not support any CHO-E cell rolling”.

With “AML (M1) N-glycosidase-F CD44: N-glycosidase-F-treated CD44 from AML (M1) blasts”, in the test with L-selectin, the “Mean Number of Bound Lymphocytes” value is on record as 23.4.

As to “K562 CD44: CD44 isolated from K562 cells”, the “E-selectin ligand activity (CHO-E cell rolling)” value in the test with E-selectin [1] is given as “did not support any CHO-E cell rolling”.

Consider “BMEC-1 CD44: CD44 from human BM endothelial cell line BMEC-1”, for which the “E-selectin ligand activity (CHO-E cell rolling) in blot rolling assay” value with E-selectin [2] is “did not possess any E-selectin ligand activity”.

“a-L-fucosidase-treated KG1a CD44: CD44 immunoprecipitated from a-L-fucosidase-treated KG1a lysate”: the “E-selectin ligand activity (CHO-E cell rolling)” value with E-selectin [1] is recorded as “abrogated CHO-E cell rolling”.

B1: L-selectin (Molecular Control): L-selectin (LAM 1-3) immunoprecipitated from KG1a cells, negative molecular control (protein)
chain: WTYHYSEKPMNWQRARRFCRDNYTDLVAIQNKAEIEYLEKTLPFSRSYYWIGIRKIGGIWTWVGTNKSLTEEAENWGDGEPNNKKNKEDCVEIYIKRNKDAGKWNDDACHKLKAALCYTASCQPWSCSGHGECVEIINNYTCNCDVGYYGPQCQFVIQCEPLEAPELGTMDCTHPLGNFSFSSQCAFSCSEGTNLTGIEETTCGPFGNWSSPEPTCQVIQCEPLSAPDLGIMNCSHPLASFSFTSACTFICSEGTELIGKKKTICESSGIWSNPSPICQKLDKSFSMIKEGDYNPLFIPVAVMVTAFSGLAFIIWLARRLKKGKKSKRSMNDPY
On to B1, for which the “Mean Number of Bound Lymphocytes” value with L-selectin is reported as 0.5.

B2: HL60 PSGL-1: PSGL-1 immunoprecipitated from HL60 cells (protein)
chain: QATEYEYLDYDFLPETEPPEMLRNSTDTTPLTGPGTPESTTVEPAARRSTGLDAGGAVTELTTELANMGNLSTDSAAMEIQTTQPAATEAQTTQPVPTEAQTTPLAATEAQTTRLTATEAQTTPLAATEAQTTPPAATEAQTTQPTGLEAQTTAPAAMEAQTTAPAAMEAQTTPPAAMEAQTTQTTAMEAQTTAPEATEAQTTQPTATEAQTTPLAAMEALSTEPSATEALSMEPTTKRGLFIPFSVSSVTHKGIPMAASNLSVNYPVGAPDHISVKQCLLAILILALVATIFFVCTVVLAVRLSRKGHMYPVRNYSPTEMVCISSLLPDGGEGPSATANGGLSKAKSPGLTPEPREDREGDDLTLHSFLP
With B2, the “Mean Number of Bound Lymphocytes” value in the test with L-selectin turned out to be 11.0.

B3: AML (M1) PSGL-1: PSGL-1 immunoprecipitated from AML (M1) blasts (protein)
chain: QATEYEYLDYDFLPETEPPEMLRNSTDTTPLTGPGTPESTTVEPAARRSTGLDAGGAVTELTTELANMGNLSTDSAAMEIQTTQPAATEAQTTQPVPTEAQTTPLAATEAQTTRLTATEAQTTPLAATEAQTTPPAATEAQTTQPTGLEAQTTAPAAMEAQTTAPAAMEAQTTPPAAMEAQTTQTTAMEAQTTAPEATEAQTTQPTATEAQTTPLAAMEALSTEPSATEALSMEPTTKRGLFIPFSVSSVTHKGIPMAASNLSVNYPVGAPDHISVKQCLLAILILALVATIFFVCTVVLAVRLSRKGHMYPVRNYSPTEMVCISSLLPDGGEGPSATANGGLSKAKSPGLTPEPREDREGDDLTLHSFLP
For B3, the “Mean Number of Bound Lymphocytes” value with L-selectin worked out at 141.5.

B4: CD34 (Molecular Control): CD34 (QBend-10) immunoprecipitated from KG1a cells, negative molecular control (protein)
chain: SLDNNGTATPELPTQGTFSNVSTNVSYQETTTPSTLGSTSLHPVSQHGNEATTNITETTVKFTSTSVITSVYGNTNSSVQSQTSVISTVFTTPANVSTPETTLKPSLSPGNVSDLSTTSTSLATSPTKPYTSSSPILSDIKAEIKCSGIREVKLTQGICLEQNKTSSCAEFKKDRGEGLARVLCGEEQADADAGAQVCSLLLAQSEVRPQCLLLVLANRTEISSKLQLMKKHQSDLKKLGILDFTEQDVASHQSYSQKTLIALVTSGALLAVLGITGYFLMNRRSWSPTGERLGEDPYYTENGGGQGYSSGPGTSPEAQGKASVNRGAQENGTGQATSRNGHSARQHVVADTEL
For the molecule B4, the “Mean Number of Bound Lymphocytes” value in the test with L-selectin came to 4.0.
